Source: patent US20220242939A1 (BIOARCTIC, published 2022)
Where two headings read alike, the source gives them in different places. Non-standard residues stand in square brackets, D forms with d. No end group written: not given here. Ahx = NCCCCCC(=O)O

T1: A199 N-terminal neo-epitope peptide AGQPLQE-Acp-C (SEQ ID NO:55) conjugated to BSA (human, not fully specified (residue 9); printed as AGQPLQE-Acp-C; also: C-terminal Cys conjugated to BSA carrier)
T1 construct: BSA carrier
T1 peptide: AGQPLQE[Ahx]C

T2: A199 N-terminal neo-epitope peptide AGQPLQ-Acp-C (SEQ ID NO:51) conjugated to BSA (human, not fully specified (residue 8); printed as AGQPLQ-Acp-C; also: C-terminal Cys conjugated to BSA carrier)
T2 construct: BSA carrier; also called A199-BSA peptide
T2 peptide: AGQPLQ[Ahx]C

T3: L198 N-terminal neo-epitope peptide LAGQPL-Acp-C (SEQ ID NO:52) conjugated to BSA (human, not fully specified (residue 8); printed as LAGQPL-Acp-C; also: C-terminal Cys conjugated to BSA carrier)
T3 construct: BSA carrier; also called L198-BSA peptide
T3 peptide: LAGQPL[Ahx]C

T4: negative control peptide AATVGSLAGQPLQER-Acp-C (SEQ ID NO:53) conjugated to BSA (human, not fully specified (residue 17); printed as AATVGSLAGQPLQER-Acp-C; also: C-terminal Cys conjugated to BSA carrier)
T4 construct: BSA carrier; also called 192-206 BSA-conjugated peptide
T4 peptide: AATVGSLAGQPLQER[Ahx]C

T5: G200 N-terminal neo-epitope peptide GQPLQE-Acp-C (SEQ ID NO:50) conjugated to BSA (human, not fully specified (residue 8); printed as GQPLQE-Acp-C; also: C-terminal Cys conjugated to BSA carrier)
T5 construct: also called G200-BSA peptide; G200-peptide
T5 peptide: GQPLQE[Ahx]C

T6: L198 N-terminal neo-epitope peptide LAGQPLQE-Acp-C (SEQ ID NO:54) conjugated to BSA (human, not fully specified (residue 10); printed as LAGQPLQE-Acp-C; also: C-terminal Cys conjugated to BSA carrier)
T6 construct: BSA carrier
T6 peptide: LAGQPLQE[Ahx]C


Tests used:
[1] = target: T7, recombinant C-terminal ApoE fragment A199-HIS (ApoE-A199-H299-10xHIS) (human, UniProt P02649 217-317); experiment: direct ELISA, A199-HIS coated at 0.1 µM
T7 construct: also called A199-HIS fragment
Procedure: (§1) Selectivity evaluation of purified monoclonal antibodies by direct ELISA: The direct ELISA described below was used to evaluate the binding selectivity of the purified monoclonal antibodies produced in Example 17.
(§2) The screening was performed according to standard ELISA protocols. Briefly, 1 μg/ml solutions of BSA-conjugated neo-epitope peptides and negative control peptide, and 0.1 μM recombinant C-terminal ApoE fragment and full-length ApoE (Abcam, cat. no. ab50243) were prepared by dilution in PBS. 50 μl/well were added to an ELISA half-area 96 well microtiter plate, and the plate was sealed with adhesive sealer and incubated over night at 4° C. After discarding the solution, the plates were blocked with 150 μl/well of protein-free blocking solution (Pierce) for 1 h at room temperature with shake (600-900 rpm). The plates were washed four times with washing buffer containing 0.28 mM NaH₂PO₄, 2.5 mM Na₂HPO₄, 150 mM NaCl, 0.1% TWEEN®-20 and 0.0075% Kathon CG. Purified monoclonal antibodies of interest were 3-fold serially diluted with a starting dilution at 3 μg/ml (mixed 1:2 with dilution buffer (PBS with 0.1% BSA and 0.05% TWEEN®-20)). An anti-ApoE C-terminal antibody was used as a reference antibody (ApoE E-8 mouse monoclonal, Santa Cruz Biotechnology, cat. no. sc-393302). 50 μl/well were added into the ELISA plates and incubated for 2 h at room temperature with shake (600-900 rpm). The plates were washed four times as described previously. […] After another wash (as described previously), 50 μl/well of K-Blue® aqueous substrate (Neogen) were added, and the reaction was stopped after 5-15 min with 50 μl/well of 0.5 M H₂SO₄. The optical density at 450 nm was read using an ELISA reader (Tecan).

[2] = target: T1, A199 N-terminal neo-epitope peptide …; experiment: direct ELISA after limiting dilution
[3] = target: T2, A199 N-terminal neo-epitope peptide …; experiment: direct ELISA, A199-BSA peptide coated at 1 µg/ml
Procedure: as §1, §2

[4] = target: T8, recombinant full-length ApoE4 (aa 1-299; SEQ ID NO:45; Abcam cat. no. ab50243) (human, UniProt P02649 19-317); experiment: direct ELISA; proteins coated at 0.1 uM, BSA peptides at 1 ug/ml; antibody in 3-fold dilutions from 3000 ng/ml; blank reduced OD 450 nm
T8 construct: Bought protein; also called recombinant ApoE4 full-length protein
Procedure: as §1, §2

[5] = target: T3, L198 N-terminal neo-epitope peptide …; experiment: as above
Procedure: as §1, §2

[6] = target: T4, negative control peptide …; experiment: as above
Procedure: as §1, §2

[7] = target: T5, G200 N-terminal neo-epitope peptide …; experiment: as above
Procedure: as §1, §2

[8] = target: T9, full-length ApoE in human brain extract from Alzheimer's disease patients (human, UniProt P02649 19-317); experiment: Western blot of AD brain RIPA 2% SDS extract; anti-A199 antibody at 2 ug/ml as primary antibody
T9 construct: mature; Endogenous protein on Western blot or in solution (IP); also called ApoE full-length protein
Procedure: RIPA 2% SDS brain extract containing approximately 60 μg total protein was mixed with 2×Laemmli sample buffer, boiled for 5 min at 95° C. and loaded onto SDS-PAGE gels (Bolt™ 12% Bis-Tris Plus 10 well, Thermo Fisher, cat. no. NW00120BOX). Gels were run for 30-40 min at 180 V, after which proteins were transferred from the gels onto nitrocellulose membranes using the Trans-Blot® Turbo™ system (Bio-Rad). […] Membranes were washed and incubated for 1 h at room temperature with the detection antibody anti-mouse-800CW (LI-COR, cat. no. 925-32210) diluted 1:25000 in Intercept® PBS Blocking Buffer (LI-COR) with 0.1% TWEEN®-20. Membranes were washed and images acquired using Odyssey® FC (LI-COR).

[9] = target: T3, L198 N-terminal neo-epitope peptide …; experiment: direct ELISA, L198-BSA peptide coated at 1 µg/ml
Procedure: (§3) Selectivity evaluation of purified monoclonal antibodies by direct ELISA: The direct ELISA described below was used to evaluate the binding selectivity of the purified monoclonal antibodies produced in Example 14.
as §2, with “[…].” for “H₂SO₄.”

[10] = target: T10, recombinant C-terminal ApoE fragment L198-HIS (ApoE-L198-H299-10xHIS) (human, UniProt P02649 216-317); experiment: direct ELISA, L198-HIS coated at 0.1 µM
T10 construct: also called L198-HIS fragment
Procedure: as §3
as §2, with “[…].” for “H₂SO₄.”

[11] = target: T6, L198 N-terminal neo-epitope peptide …; experiment: direct ELISA after limiting dilution
[12] = target: T9, full-length ApoE in human brain extract …; experiment: Western blot of AD brain RIPA 2% SDS extract; monoclonal antibody at 2 ug/ml as primary antibody
[13] = target: T8, recombinant full-length ApoE4 (aa …); experiment: direct ELISA; proteins coated at 0.1 uM, BSA peptides at 1 ug/ml; antibody in 3-fold dilutions from 3000 ng/ml; blank reduced OD 450 nm; remark: listed apart in the source
Procedure: as §3
as §2, with “[…].” for “H₂SO₄.”

[14] = target: T5, G200 N-terminal neo-epitope peptide …; experiment: as above
Procedure: as §3
as §2, with “[…].” for “H₂SO₄.”

T8 sequence (P02649 19-317 C130R limits assumed): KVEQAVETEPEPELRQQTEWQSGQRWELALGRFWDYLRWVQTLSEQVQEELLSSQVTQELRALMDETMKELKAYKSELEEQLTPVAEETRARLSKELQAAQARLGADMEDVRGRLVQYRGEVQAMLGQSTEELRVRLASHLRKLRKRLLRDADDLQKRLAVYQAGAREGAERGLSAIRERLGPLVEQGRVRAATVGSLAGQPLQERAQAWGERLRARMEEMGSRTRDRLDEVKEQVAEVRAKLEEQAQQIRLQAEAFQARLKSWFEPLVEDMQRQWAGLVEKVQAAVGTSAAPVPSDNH
T9 sequence (P02649 19-317): as the sequence (P02649 19-317 C130R limits assumed) above, with R112C counted along it
T7 sequence (P02649 other isoform, or with tags, fused parts or gaps limits assumed): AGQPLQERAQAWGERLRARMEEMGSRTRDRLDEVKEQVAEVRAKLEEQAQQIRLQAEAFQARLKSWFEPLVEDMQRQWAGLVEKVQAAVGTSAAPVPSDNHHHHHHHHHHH
T10 sequence (P02649 other isoform, or with tags, fused parts or gaps limits assumed): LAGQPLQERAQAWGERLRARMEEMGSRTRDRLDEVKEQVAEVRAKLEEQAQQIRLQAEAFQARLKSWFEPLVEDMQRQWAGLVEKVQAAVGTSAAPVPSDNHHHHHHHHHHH

EC50 [1]	binding result [2]	EC50 [3]	binding result [4]	binding result [5]	binding result [6]	binding result [7]	binding result [8]	EC50 [9]	EC50 [10]	binding result [11]	binding result [12]	binding result [13]	binding result [14]	Binder
0.0202 µg/mL	binds	0.0051 µg/mL	no binding (tested: 3000 ng/ml)	no binding (tested: 3000 ng/ml)	no binding (tested: 3000 ng/ml)	no binding (tested: 3000 ng/ml)	no binding (tested: 2 ug/ml (text))	–	–	–	–	–	–	36A12, monoclonal anti-A199 antibody (antibody, IgG1, V domains shown) VH: EVKLEESGGGLVQPGGSMKLSCVASGFTFSNYWMNWVRQSPEKGLEWIGEIKLKSNNYGTHYAESVKGRFTISRDDSKSSVYLQMNNLRAEDTGIYYCTRDTEVVAGAHWGQGTLVTVSA VL: NIMMTQSPSSLAVSAGEKVTMSCKSSQSVLYNSNQKNYLAWYQQKPGQSPKLLIYWASTRDSGVPDRFTGSGSGTDFTLTISSVRAEDLAVYFCQQYLSSLTFGAGTKLELK
0.0397 µg/mL	binds	0.0046 µg/mL	no binding (tested: 3000 ng/ml)	no binding (tested: 3000 ng/ml)	no binding (tested: 3000 ng/ml)	no binding (tested: 3000 ng/ml)	no binding (tested: 2 ug/ml (text))	–	–	–	–	–	–	38G9, monoclonal anti-A199 antibody (antibody, IgG1, V domains shown) VH: EVKLEESGGGLVQPGGSMKLSCVASGFTFSNYWMNWVRQSPEKGLEWVGEIKLKSNNYGTHYAESVKGRFTISRDDSKSSVYLQMNNLRAEDTGIYYCTRDTEVVAGAHWGQGTLVTVSA VL: NIMMTQSPSSLAVSAGEKVTMSCKSSQSVLYSSNQKNYLAWYQQKPGQSPKLLIYWASTRESGVPDRFTGSGSGTDFTLTISSVQAEDLAVYFCQQYLSSLTFGAGTKLELK
–	–	–	–	–	–	–	–	0.0247 µg/mL	0.015 µg/mL	binds	no binding (tested: 2 ug/ml (text))	no binding (tested: 3000 ng/ml)	no binding (tested: 3000 ng/ml)	15F8, monoclonal anti-L198 antibody (antibody, IgG2c, V domains shown) VH: EVKLEESGGGLVHPGGSMKLSCVGSGFTFSNYWMNWVRQSPEKGLEWVAQIKLRSDNYATHYAESVKGKFTISRDDAKSSVYLQMDNLRAEDTGIYYCSHHYLDSGGYFDVWGTGTSVTVSS VL: DIVMTQSQKFMSTSVGDRVSVTCKASQNVGINVAWYQDKPGQSPKGLILSASYRYSGVPDRFTGSGSGTDFTLTISNVQSEDLAEYFCQQYNSYPYTFGGGTKLEIK
